# Patent publication US20160159862A1 (PROTAGONIST THERAPEUTICS, published 2016)
# Bridge positions count the residues as written; N and C are the ends. Square brackets hold non-standard residues; d marks the D form. * marks the point of attachment. Phe(4-tBu) = CC(C)(C)c1ccc(C[C@H](N)C(=O)O)cc1; Oleoyl = CCCCCCCC/C=C\CCCCCCCC(=O)*; NMeR = CN[C@@H](CCCNC(=N)N)C(=O)O; Palmitoyl = CCCCCCCCCCCCCCCC(=O)*; Myristoyl = CCCCCCCCCCCCCC(=O)*; β3hE = N[C@@H](CCC(=O)O)CC(=O)O; Pen = CC(C)(S)[C@H](N)C(=O)O; Lauroyl = CCCCCCCCCCCC(=O)*; Isovaleryl = CC(C)CC(=O)*
# Molecular target: α4β7 integrin on human cells (human, UniProt P13612 34-1032; P26010 20-798)
# Experiment: cell-based or functional assay
row,Binder,α4β7 cell (Hu) IC50
1,Ac-[Pen][NMeR]SDTL[Pen][dF][dE][dK]-NH2 (disulfide 1-7 (inferred); also: homodimer via DIG) [SEQ ID NO 2],> 0.1 µM
2,Ac-[Pen][NMeR]SDIL[Pen][Phe(4-tBu)][β3hE][dK]-NH2 (disulfide 1-7 (inferred); also: homodimer via IDA) [SEQ ID NO 186],> 0.1 µM
3,"Ac-[Pen][NMeR]SQIQ[Pen][Phe(4-tBu)][β3hE][dK]-NH2 (disulfide 1-7 (inferred); also: homodimer via IDA, Alexa-647 label on IDA) [SEQ ID NO 192]",> 10 µM
4,Myristoyl-[Pen][NMeR]SDTL[Pen][Phe(4-tBu)][β3hE][dK]-NH2 (disulfide 1-7 (inferred)) [SEQ ID NO 181],> 1 µM
5,Ac-[Pen][NMeR]SDTQ[Pen][Phe(4-tBu)][β3hE][dK]-NH2 (disulfide 1-7 (inferred); also: homodimer via IDA) [SEQ ID NO 187],> 0.1 µM
6,"Ac-[Pen][NMeR]SDDL[Pen][Phe(4-tBu)][β3hE][dK]-NH2 (disulfide 1-7 (inferred); also: homodimer via IDA, Alexa-647 label on IDA) [SEQ ID NO 193]",> 100 µM
7,Ac-[Pen][NMeR]SQIQ[Pen][Phe(4-tBu)][β3hE][dK]-NH2 (disulfide 1-7 (inferred); also: homodimer via IDA) [SEQ ID NO 190],> 100 µM
8,Isovaleryl-[Pen][NMeR]SDTL[Pen][Phe(4-tBu)][b‑H‑E][dK]-NH2 (disulfide 1-7 (inferred)) [SEQ ID NO 177],> 0.05 µM
9,Lauroyl-[Pen][NMeR]SDTL[Pen][Phe(4-tBu)][β3hE][dK]-NH2 (disulfide 1-7 (inferred)) [SEQ ID NO 179],> 0.1 µM
10,Oleoyl-[Pen][NMeR]SDTL[Pen][Phe(4-tBu)][β3hE][dK]-NH2 (disulfide 1-7 (inferred)) [SEQ ID NO 180],> 1 µM

# Next, values leading:
row,α4β7 cell (Hu) IC50,Binder
1,≤ 0.01 µM,"Ac-[Pen][NMeR]SDIL[Pen][Phe(4-tBu)][β3hE][dK]-NH2 (disulfide 1-7 (inferred); also: homodimer via IDA, Alexa-647 label on IDA) [SEQ ID NO 188]"
2,> 1 µM,Palmitoyl-[Pen][NMeR]SDTL[Pen][Phe(4-tBu)][β3hE][dK]-NH2 (disulfide 1-7 (inferred)) [SEQ ID NO 178]
3,> 0.1 µM,Ac-[Pen][NMeR]SDTL[Pen][dF]E[dK]-NH2 (disulfide 1-7 (inferred); also: homodimer via DIG linker) [SEQ ID NO 30]
4,> 10 µM,Ac-[Pen][NMeR]SDDL[Pen][Phe(4-tBu)][β3hE][dK]-NH2 (disulfide 1-7 (inferred); also: homodimer via IDA) [SEQ ID NO 191]
5,> 10 µM,Ac-[Pen][NMeR]SQIQ[Pen][Phe(4-tBu)][β3hE][dK]-NH2 (disulfide 1-7 (inferred); also: homodimer via DIG) [SEQ ID NO 189]
